Tests used:
DMF5 TCR [1] = test: flow cytometry of Jurkat/MA cells transduced with DMF5, stained with the pooled barcoded tetramer library
DMF5 TCR [2] = molecular target: DMF5 TCR

Row | percent DMF5 positive cells (DMF5 TCR [1]) [%] | Substance | percent tetramer-positive cells (DMF5 TCR [2]) [%]
1 | 33 | MART-1/HLA-A*02:01 tetramer (from UniProt P61769 21-119) (peptide-MHC) | 
2 |  | CMVpp65/HLA-A*02:01 tetramer (from UniProt P61769 21-119) (peptide-MHC) | 0.1
